Experimental findings from article PMC3861103 are described below.

Data set [1] deals with T1, 6xHis-MBP-NHR-25 DBD (unmodified) (Caenorhabditis elegans, UniProt Q19345 1-173).
T1 sequence: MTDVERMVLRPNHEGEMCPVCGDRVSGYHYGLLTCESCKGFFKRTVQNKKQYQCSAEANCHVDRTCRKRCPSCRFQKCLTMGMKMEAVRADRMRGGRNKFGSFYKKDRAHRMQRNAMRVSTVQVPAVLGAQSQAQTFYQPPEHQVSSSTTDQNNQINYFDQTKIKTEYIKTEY
The experiment in a line: EMSA; 500 nM protein, 1 uM DNA; 50 mM Tris pH 8.0, 150 mM NaCl, 10 mM MgCl2, 10 mM DTT, 10 mM ATP, 400 ug/ml BSA, 1 uM dsDNA, 500 nM protein (200-700 nM titration), room temperature 30 min; 4-20% TBE gel, SYBR Gold. The note with it: protein: recombinant, tags: N-terminal 6xHis-MBP. A general note: A gel shift assay detects complexes by their altered migration in electrophoresis.

Data set [2] has as its target T1, 6xHis-MBP-NHR-25 DBD (unmodified). The data set can be described thus: EMSA; 1 uM DNA; 50 mM Tris pH 8.0, 150 mM NaCl, 10 mM MgCl2, 10 mM DTT, 10 mM ATP, 400 ug/ml BSA, 1 uM dsDNA, 500 nM protein (200-700 nM titration), room temperature 30 min; 4-20% TBE gel, SYBR Gold. Conditions: protein: recombinant; tags: N-terminal 6xHis-MBP; blunt.

B1: MIS WT (dsDNA)
DNA 1: GATCCGCCAGGCACTGTCCCCCAAGGTCACCTTTGGTGTTGATAAGATCCC
DNA 2: TCGAGGGATCTTATCAACACCAAAGGTGACCTTGGGGGACAGTGCCTGGCG
Take B1: the binding result in data set [1] (5' overhangs 4 nt on both strands) is reported as “binds”.

B2: CYP11A1 (dsDNA)
DNA 1: ACATTTTATCAGCTTCTGGTATGGCCTTGAGCTGGTAGTTATAATCTTGGC
DNA 2: GCCAAGATTATAACTACCAGCTCAAGGCCATACCAGAAGCTGATAAAATGT
Regarding B2, the binding result in data set [1] (blunt) is “binds”.

B3: 2xNR5RE WT (dsDNA)
DNA 1: CTAAAGGGAGCCAAGGTCATAGCGGCCAGTCAAGGCCAAGGGCGACAG
DNA 2: CTGTCGCCCTTGGCCTTGACTGGCCGCTATGACCTTGGCTCCCTTTAG
On to B3, for which the binding result in data set [2] is given as “binds”.
